Test results from the Human Domainome abundance scans (Beltran et al. 2025).
± gives the uncertainty stated by the source.

test: abundance fitness (aPCA) (normalised: wild type 0, dead -1); higher = more abundant; growth selection in yeast, the domain comes from the species named; details: Homo sapiens

Substance	abundance fitness
DnaJ homolog subfamily B member 1 K60I, P25685	-0.654 ± 0.16
DnaJ homolog subfamily B member 1 K60L, P25685	-0.426 ± 0.052
DnaJ homolog subfamily B member 1 K60M, P25685	-0.462 ± 0.11
DnaJ homolog subfamily B member 1 K60N, P25685	-0.311 ± 0.098
DnaJ homolog subfamily B member 1 K60P, P25685	-0.352 ± 0.17
DnaJ homolog subfamily B member 1 K60Q, P25685	-0.128 ± 0.085
DnaJ homolog subfamily B member 1 K60S, P25685	-0.216 ± 0.072
DnaJ homolog subfamily B member 1 K60T, P25685	-0.298 ± 0.09
DnaJ homolog subfamily B member 1 K60V, P25685	-0.706 ± 0.11
DnaJ homolog subfamily B member 1 K60Y, P25685	-0.575 ± 0.29
DnaJ homolog subfamily B member 1 L9A, P25685	-0.892 ± 0.26
DnaJ homolog subfamily B member 1 L9C, P25685	-0.823 ± 0.11
DnaJ homolog subfamily B member 1 L9E, P25685	-0.631 ± 0.13
DnaJ homolog subfamily B member 1 L9G, P25685	-0.855 ± 0.074
DnaJ homolog subfamily B member 1 L9H, P25685	-1.12 ± 0.12
DnaJ homolog subfamily B member 1 L9I, P25685	-0.546 ± 0.13
DnaJ homolog subfamily B member 1 L9K, P25685	-1.26 ± 0.23
DnaJ homolog subfamily B member 1 L9M, P25685	-0.412 ± 0.16
DnaJ homolog subfamily B member 1 L9N, P25685	-0.664 ± 0.11
DnaJ homolog subfamily B member 1 L9P, P25685	-0.726 ± 0.082
DnaJ homolog subfamily B member 1 L9Q, P25685	-0.649 ± 0.095
DnaJ homolog subfamily B member 1 L9R, P25685	-1.01 ± 0.095
DnaJ homolog subfamily B member 1 L9S, P25685	-0.681 ± 0.079
DnaJ homolog subfamily B member 1 L9T, P25685	-0.69 ± 0.14
DnaJ homolog subfamily B member 1 L9V, P25685	-0.697 ± 0.17
DnaJ homolog subfamily B member 1 L9W, P25685	-1.25 ± 0.17

Substance	abundance fitness
DnaJ homolog subfamily B member 1 L9Y, P25685	-0.818 ± 0.11
DnaJ homolog subfamily B member 1 L11A, P25685	-0.147 ± 0.078
DnaJ homolog subfamily B member 1 L11C, P25685	-0.018 ± 0.088
DnaJ homolog subfamily B member 1 L11D, P25685	-0.776 ± 0.16
DnaJ homolog subfamily B member 1 L11E, P25685	-0.5 ± 0.15
DnaJ homolog subfamily B member 1 L11F, P25685	-0.949 ± 0.11
DnaJ homolog subfamily B member 1 L11G, P25685	-0.773 ± 0.071
DnaJ homolog subfamily B member 1 L11H, P25685	-0.795 ± 0.15
DnaJ homolog subfamily B member 1 L11I, P25685	0.015 ± 0.1
DnaJ homolog subfamily B member 1 L11K, P25685	-0.849 ± 0.19
DnaJ homolog subfamily B member 1 L11M, P25685	-0.423 ± 0.12
DnaJ homolog subfamily B member 1 L11N, P25685	-0.712 ± 0.12
DnaJ homolog subfamily B member 1 L11P, P25685	-0.759 ± 0.12
DnaJ homolog subfamily B member 1 L11Q, P25685	-0.464 ± 0.14
DnaJ homolog subfamily B member 1 L11R, P25685	-0.96 ± 0.075
DnaJ homolog subfamily B member 1 L11S, P25685	-0.381 ± 0.081
DnaJ homolog subfamily B member 1 L11T, P25685	-0.209 ± 0.11
DnaJ homolog subfamily B member 1 L11V, P25685	-0.041 ± 0.065
DnaJ homolog subfamily B member 1 L11W, P25685	-1.44 ± 0.15
DnaJ homolog subfamily B member 1 L11Y, P25685	-1.1 ± 0.13
DnaJ homolog subfamily B member 1 L29A, P25685	-0.167 ± 0.085
DnaJ homolog subfamily B member 1 L29C, P25685	-0.119 ± 0.086
DnaJ homolog subfamily B member 1 L29D, P25685	-0.089 ± 0.16
DnaJ homolog subfamily B member 1 L29E, P25685	0.067 ± 0.15
DnaJ homolog subfamily B member 1 L29F, P25685	-0.04 ± 0.077
DnaJ homolog subfamily B member 1 L29G, P25685	0.01 ± 0.083

Substance	abundance fitness
DnaJ homolog subfamily B member 1 L29H, P25685	-0.015 ± 0.12
DnaJ homolog subfamily B member 1 L29I, P25685	0.116 ± 0.12
DnaJ homolog subfamily B member 1 L29K, P25685	-0.116 ± 0.08
DnaJ homolog subfamily B member 1 L29M, P25685	-0.234 ± 0.12
DnaJ homolog subfamily B member 1 L29N, P25685	-0.572 ± 0.3
DnaJ homolog subfamily B member 1 L29P, P25685	-0.461 ± 0.16
DnaJ homolog subfamily B member 1 L29Q, P25685	0.086 ± 0.18
DnaJ homolog subfamily B member 1 L29R, P25685	-0.06 ± 0.077
DnaJ homolog subfamily B member 1 L29S, P25685	-0.138 ± 0.058
DnaJ homolog subfamily B member 1 L29T, P25685	-0.131 ± 0.072
DnaJ homolog subfamily B member 1 L29V, P25685	-0.052 ± 0.076
DnaJ homolog subfamily B member 1 L29W, P25685	-0.111 ± 0.068
DnaJ homolog subfamily B member 1 L29Y, P25685	-0.008 ± 0.089
DnaJ homolog subfamily B member 1 L55C, P25685	-0.788 ± 0.2
DnaJ homolog subfamily B member 1 L55E, P25685	-0.752 ± 0.099
DnaJ homolog subfamily B member 1 L55F, P25685	-0.649 ± 0.1
DnaJ homolog subfamily B member 1 L55G, P25685	-0.687 ± 0.081
DnaJ homolog subfamily B member 1 L55H, P25685	-0.686 ± 0.14
DnaJ homolog subfamily B member 1 L55I, P25685	-0.354 ± 0.11
DnaJ homolog subfamily B member 1 L55K, P25685	-0.781 ± 0.11
DnaJ homolog subfamily B member 1 L55M, P25685	-0.464 ± 0.11
DnaJ homolog subfamily B member 1 L55N, P25685	-0.603 ± 0.17
DnaJ homolog subfamily B member 1 L55P, P25685	-0.705 ± 0.088
DnaJ homolog subfamily B member 1 L55Q, P25685	-0.747 ± 0.1
DnaJ homolog subfamily B member 1 L55R, P25685	-0.769 ± 0.069
DnaJ homolog subfamily B member 1 L55S, P25685	-0.524 ± 0.086

Substance	abundance fitness
DnaJ homolog subfamily B member 1 L55T, P25685	-0.636 ± 0.1
DnaJ homolog subfamily B member 1 L55V, P25685	-0.347 ± 0.08
DnaJ homolog subfamily B member 1 L55W, P25685	-0.932 ± 0.1
DnaJ homolog subfamily B member 1 L55Y, P25685	-0.873 ± 0.16
DnaJ homolog subfamily B member 1 N36A, P25685	0.038 ± 0.084
DnaJ homolog subfamily B member 1 N36C, P25685	0.124 ± 0.17
DnaJ homolog subfamily B member 1 N36D, P25685	-0.221 ± 0.12
DnaJ homolog subfamily B member 1 N36E, P25685	-0.174 ± 0.084
DnaJ homolog subfamily B member 1 N36F, P25685	-0.415 ± 0.12
DnaJ homolog subfamily B member 1 N36G, P25685	-0.029 ± 0.08
DnaJ homolog subfamily B member 1 N36H, P25685	0.002 ± 0.11
DnaJ homolog subfamily B member 1 N36I, P25685	-0.181 ± 0.13
DnaJ homolog subfamily B member 1 N36K, P25685	-0.112 ± 0.085
DnaJ homolog subfamily B member 1 N36L, P25685	0.009 ± 0.054
DnaJ homolog subfamily B member 1 N36M, P25685	0.035 ± 0.13
DnaJ homolog subfamily B member 1 N36P, P25685	-0.096 ± 0.086
DnaJ homolog subfamily B member 1 N36R, P25685	-0.14 ± 0.093
DnaJ homolog subfamily B member 1 N36S, P25685	0.079 ± 0.06
DnaJ homolog subfamily B member 1 N36T, P25685	0.092 ± 0.1
DnaJ homolog subfamily B member 1 N36V, P25685	-0.158 ± 0.088
DnaJ homolog subfamily B member 1 N36W, P25685	-0.097 ± 0.099
DnaJ homolog subfamily B member 1 N36Y, P25685	-0.195 ± 0.11
DnaJ homolog subfamily B member 1 P33A, P25685	-0.055 ± 0.075
DnaJ homolog subfamily B member 1 P33C, P25685	-0.11 ± 0.1
DnaJ homolog subfamily B member 1 P33E, P25685	-0.096 ± 0.087
DnaJ homolog subfamily B member 1 P33F, P25685	-0.207 ± 0.093
